# Experimental data: patent US20040077031
# Test system: MAS (methionine-alanine-serine) trimeric peptide
substance,measurement,value
recombinant human methionine aminopeptidase type 1 (MetAP1) with N-terminal histidine tag,enzymatic cleavage of peptide substrate,showed enzymatic activity in cleaving a tripeptide MAS substrate
